Assay results from the supplement of paper PMC9170038.

Test system: K4 kissing-loop RNA reporter
Assay: apparent KD of K4 kissing-loop reporter; higher = weaker reporter binding
Details: Eterna round: R107
Experimental: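 RNA-MaP round R107: designed RNA switches with theophylline, tryptophan, arginine or FMN aptamers are transcribed on-chip within common flanks. They are titrated with a labelled K4 kissing-loop RNA reporter in RNA-MaP buffer (100 mM Tris pH 7.5, 80 mM KCl, 4 mM MgCl2), without ligand or with the indicated ligand. Median apparent KD per design.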

[1] = input ligand: theophylline 20 uM
[2] = input ligand: tryptophan 2.4 mM
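Note: bound reporter read as fluorescence of individual clusters on recovered sequencing chips by microscopy, with normalized cluster intensities fitted with a binding model.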

Sequence: GCGGCGGGCCAAGGAUAUAUAUUGGAGUGAUGUUGUUCAUUUAUUUGAGCUAGUGAUGUUGGUCAGAUAGAAGGUGGCCCGCCGC [whbob_Ex_FMNB__2th216]
- apparent KD of K4 kissing-loop reporter (input ligand: FMN 200 uM): 76.3 nM
- apparent KD of K4 kissing-loop reporter (input ligand: arginine 13.2 mM): 30.1 nM
- apparent KD of K4 kissing-loop reporter (input ligand: none): 51.1 nM
- apparent KD of K4 kissing-loop reporter [1]: 46.2 nM
- apparent KD of K4 kissing-loop reporter [2]: 46.4 nM

Sequence: UGGACCGCCUGAGGAUAUAGGGACGAGUGAUGUUCGUGGACCAGAGCCAGUGAUGUUGGGUUAUUUCUAGAAGGCGGGCGAACUU [Exclusion FMN B GF11]
- apparent KD of K4 kissing-loop reporter (input ligand: FMN 200 uM): 120 nM
- apparent KD of K4 kissing-loop reporter (input ligand: arginine 13.2 mM): 167 nM
- apparent KD of K4 kissing-loop reporter (input ligand: none): 188 nM
- apparent KD of K4 kissing-loop reporter [1]: 154 nM
- apparent KD of K4 kissing-loop reporter [2]: 146 nM

Sequence: UUAUAUACGAGUGAUGUUCGUUAUUUAUCAGAGGAUAUGCUUAAAUGCAGAAGGCUGUAUUUCUAUUUGAUAUUAAAUUUUAUAA [JR_Nu3_ExcFMNA_Sub026]
- apparent KD of K4 kissing-loop reporter (input ligand: FMN 200 uM): 90.8 nM
- apparent KD of K4 kissing-loop reporter (input ligand: arginine 13.2 mM): 89.8 nM
- apparent KD of K4 kissing-loop reporter (input ligand: none): 66.8 nM
- apparent KD of K4 kissing-loop reporter [1]: 86.1 nM
- apparent KD of K4 kissing-loop reporter [2]: 57.3 nM

Sequence: UGACUGGACUGAAGGAGCGGGCGAGACAAAGUCUCGAACUGCUAGUGAUGUUAGCAAAUAACCCAGGUAGGUCGCAGUCUAGUCU
- apparent KD of K4 kissing-loop reporter (input ligand: FMN 200 uM): 122 nM
- apparent KD of K4 kissing-loop reporter (input ligand: arginine 13.2 mM): 100 nM
- apparent KD of K4 kissing-loop reporter (input ligand: none): 120 nM
- apparent KD of K4 kissing-loop reporter [1]: 109 nM
- apparent KD of K4 kissing-loop reporter [2]: 110 nM

Sequence: AACUGUCAAGGCCAACAUUACUGAGGUGAUACCAGCAUCGAAAGAUGCCCUUGGCAGCACCGACUUGCAGUGAUGUUGCAAGUAA [BrourdMod 12 - Jieux - Exclusion - Theophylline A]
- apparent KD of K4 kissing-loop reporter (input ligand: FMN 200 uM): 329 nM
- apparent KD of K4 kissing-loop reporter (input ligand: arginine 13.2 mM): 266 nM
- apparent KD of K4 kissing-loop reporter (input ligand: none): 333 nM
- apparent KD of K4 kissing-loop reporter [1]: 370 nM
- apparent KD of K4 kissing-loop reporter [2]: 287 nM

Sequence: AAACUUGCAGUGAUGUUGCAAGUAGGUGAUACCAGCAUCGAAAGAUGCCCUUGGCAGCACCAACACUGUAAGUAAGUAUCACCAA [(H1)-(H2)-(T1)-(T2)-(H)'-(T)'_Design2]
- apparent KD of K4 kissing-loop reporter (input ligand: FMN 200 uM): 110 nM
- apparent KD of K4 kissing-loop reporter (input ligand: arginine 13.2 mM): 120 nM
- apparent KD of K4 kissing-loop reporter (input ligand: none): 117 nM
- apparent KD of K4 kissing-loop reporter [1]: 139 nM
- apparent KD of K4 kissing-loop reporter [2]: 105 nM

Sequence: AUGUCUUAUAAACUCGUGGUUUCGAUCGAUACCAGUAGCGAGAGUUACCCUUGGCAGCGACAUGAGUGAUGUUCAUGUACGAAGA [KL-XTheoA4]
- apparent KD of K4 kissing-loop reporter (input ligand: FMN 200 uM): 96.1 nM
- apparent KD of K4 kissing-loop reporter (input ligand: arginine 13.2 mM): 89 nM
- apparent KD of K4 kissing-loop reporter (input ligand: none): 94.3 nM
- apparent KD of K4 kissing-loop reporter [1]: 90.2 nM
- apparent KD of K4 kissing-loop reporter [2]: 92.9 nM

Sequence: CCAAGCGUCAGCGAUACCAGAAUUCUAGUGAUGUUAGGUUCUGUCAUUGUACUAGCAGUGUUCCCUUGGCAGCGCGUGAUAGGCA [theeternabot_exclusion_KL_Theo_B_16]
- apparent KD of K4 kissing-loop reporter (input ligand: FMN 200 uM): 170 nM
- apparent KD of K4 kissing-loop reporter (input ligand: arginine 13.2 mM): 121 nM
- apparent KD of K4 kissing-loop reporter (input ligand: none): 140 nM
- apparent KD of K4 kissing-loop reporter [1]: 173 nM
- apparent KD of K4 kissing-loop reporter [2]: 138 nM

Sequence: GCGUCUGUCGGAAGGAGCGCACUAUGGAGUGAUGUUCCAUGACCGCACAGCUUGCGGUCAGUGCAGGUAGGUCGCCGAUAGCGUU [Diestera]
- apparent KD of K4 kissing-loop reporter (input ligand: FMN 200 uM): 161 nM
- apparent KD of K4 kissing-loop reporter (input ligand: arginine 13.2 mM): 157 nM
- apparent KD of K4 kissing-loop reporter (input ligand: none): 154 nM
- apparent KD of K4 kissing-loop reporter [1]: 190 nM
- apparent KD of K4 kissing-loop reporter [2]: 144 nM

Sequence: UGGUUCAAUACGGCCGCCACUGGUGAGUGAUGUUUACCGUCUAUAUCAUGUGUCGAGAGCGCUAUCAGGACCGGGUAGGGACCGU [theeternabot_exclusion_KL_Trp_B_42]
- apparent KD of K4 kissing-loop reporter (input ligand: FMN 200 uM): 673 nM
- apparent KD of K4 kissing-loop reporter (input ligand: arginine 13.2 mM): 396 nM
- apparent KD of K4 kissing-loop reporter (input ligand: none): 721 nM
- apparent KD of K4 kissing-loop reporter [1]: 837 nM
- apparent KD of K4 kissing-loop reporter [2]: 458 nM
